# Results published in US20110300229A1, “TREATING OR PREVENTING ROTAVIRUS INFECTION” (FONTERRA CO-OPERATIVE GROUP LIMITED, priority 2007, published 2011).
# Marks after values point to notes of the source that are not given here.
# B1: bovine lactadherin: bovine milk fat globule membrane glycoprotein, cited from Kvistgaard et al, 2004 (protein, UniProt Q95114 19-427, looked up)
# Lactadherin: ASGDFCDSSLCLHGGTCLLNEDRTPPFYCLCPEGFTGLLCNETEHGPCFPNPCHNDAECQVTDDSHRGDVFIQYICKCPLGYVGIHCETTCTSPLGMQTGAIADSQISASSMHLGFMGLQRWAPELARLHQTGIVNAWTSGNYDKNPWIQVNLMRKMWVTGVVTQGASRAGSAEYLKTFKVAYSTDGRQFQFIQVAGRSGDKIFIGNVNNSGLKINLFDTPLETQYVRLVPIICHRGCTLRFELLGCELNGCTEPLGLKDNTIPNKQITASSYYKTWGLSAFSWFPYYARLDNQGKFNAWTAQTNSASEWLQIDLGSQKRVTGIITQGARDFGHIQYVAAYRVAYGDDGVTWTEYKDPGASESKIFPGNMDNNSHKKNIFETPFQARFVRIQPVAWHNRITLRVELLGC
# B2: bovine lactoferrin: bovine milk protein, result cited from Kvistgaard et al, 2004 (protein, UniProt P24627 20-708, looked up)
# Lactotransferrin: APRKNVRWCTISQPEWFKCRRWQWRMKKLGAPSITCVRRAFALECIRAIAEKKADAVTLDGGMVFEAGRDPYKLRPVAAEIYGTKESPQTHYYAVAVVKKGSNFQLDQLQGRKSCHTGLGRSAGWIIPMGILRPYLSWTESLEPLQGAVAKFFSASCVPCIDRQAYPNLCQLCKGEGENQCACSSREPYFGYSGAFKCLQDGAGDVAFVKETTVFENLPEKADRDQYELLCLNNSRAPVDAFKECHLAQVPSHAVVARSVDGKEDLIWKLLSKAQEKFGKNKSRSFQLFGSPPGQRDLLFKDSALGFLRIPSKVDSALYLGSRYLTTLKNLRETAEEVKARYTRVVWCAVGPEEQKKCQQWSQQSGQNVTCATASTTDDCIVLVLKGEADALNLDGGYIYTAGKCGLVPVLAENRKSSKHSSLDCVLRPTEGYLAVAVVKKANEGLTWNSLKDKKSCHTAVDRTAGWNIPMGLIVNQTGSCAFDEFFSQSCAPGADPKSRLCALCAGDDQGLDKCVPNSKEKYYGYTGAFRCLAEDVGDVAFVKNDTVWENTNGESTADWAKNLNREDFRLLCLDGTRKPVTEAQSCHLAVAPNHAVVSRSDRAAHVKQVLLHQQALFGKNGKNCPDKFCLFKSETKNLLFNDNTECLAKLGGRPTYEEYLGTEYVTAIANLKKCSTSPLLEACAFLTR
# B3: Lactoferrin: lactoferrin provided by Fonterra Co-operative Group Limited; comparative material (protein, UniProt P24627 20-708, looked up)
# Lactotransferrin: B2 Lactotransferrin
# B4: bovine MUC1 mucin: bovine milk mucin, cited from Kvistgaard et al, 2004 (protein, UniProt Q8WML4 23-580, looked up)
# Mucin-1: NVPTLTTSDSINPRRTTPVSTTQSSPTSSPTKETSWSTTTTLLTASSPAPSPAASPGHDGASTPTSSPAPSPAASPGHDGASTPTSSPAPSPAASPGHDGASTPTSSPAPSPAASPGHDGASTPTSSPAPSPAASPGHNGTSSPTGSPAPSPAASPGHDGASTPTSSPAPSPAASPGHNGTSSPTGSPAPSPAASPGHDGASTPTSSPAPSPAASPGHNGTSSPTGSPAPSPTASPGHDSAPSLTSSPAPSPTASPGQHGASSPTSSDTSSMTTRSMSSSMVTSAHKGTSSRATMTPVSKGTPSSVPSSETAPTAASHITRTAASSPSIALSTSSNPKTSQQLSVRVSLYFLSFRITNLQFNSSLENPQTSYYQELQRSIWGLILQIYKQRDFLGLSEIKFRPGSVVVELTLAFREGTTAEWVKAQFSQLEAHAASYNLTISGVSVYSAPFPSSAQAGSGVPGWGIALLVLVCVLVALAIIYLIALVVCQCGRKKCEQLDVFPTLDAYHPMSEYSTYHTHGRYVPPGSTKRSPYEEVSAGNGGSNLSYTNLAATSANL
# Tests used:
# human Wa rotavirus = conditions: cited from earlier work
# [1] = tested on: human rotavirus strain Wa; experiment: Rotavirus infection assay in HT29 cells (crystal violet, % uninfected cells); assay type: cell-based
# Procedure: The HT29 cell line was used to propagate the human rotavirus strain Wa (neuraminidase resistant) in the presence of 1 μg/ml trypsin in Dulbecco's minimal essential medium (DMEM) supplemented with 10% foetal calf serum and penicillin/streptomycin (100 μg/ml/100 units/ml). Rotavirus was harvested by freeze thawing twice, spun at 750 g to remove cell debris and stored at −80° C. The rotavirus was assayed and found to contain […] plaque forming units (pfu)/ml.
# The infection assay used was based on a number of published assays (Scott et al 1979; Smith et al 1979; Guarino et al 1996; Superb et al 2001). Confluent HT29 cells grown in DMEM (seeded at 3×10^5/ml in 96 well plates) were washed twice in sterile PBS. Doubling dilutions of each of the products to be screened (initial concentration 5 mg/ml) were made in the plate in 50 μl volumes of DMEM. Virus was added (10^4 pfu/well) to all wells except the cells only control and plates were then incubated for two hours in 5% CO2 at 37° C. Other controls included virus plus cells, lipids only, pure GM3 and pure GD3. Following the two-hour incubation trypsin was added to all the wells containing virus at a concentration of 2 μg/ml—this step cleaves VP4 to polypeptides VP8 and VP5 and is needed for the virion to penetrate into the cells' interior. Plates were incubated at 37° C. in 5% CO2 for seven days and were checked daily for cytopathic effect in the virus only control wells. Media was removed and plates washed in sterile PBS, air-dried and fixed with methanol for one minute. Plates were air dried and then stained with 100 μl/well of 1% crystal violet (351884W, BDH, England) for five minutes. Plates were washed four times with sterile water to remove excess stain. 100 μl of acetic acid per well was added to solubilise the stain and absorbance was read at a wavelength of 595 nm in a Biorad ELISA plate reader. Each sample was assayed on a minimum of three separate occasions and the percentage of uninfected cells calculated.
# Statistical analysis was performed using an unpaired Student t test (InStat for MacIntosh) to compare the effect of the lipid products derived from bovine milk with the virus only control at the lowest dilution of the product.
molecule,measurement,setting,value
B1,prevention of human Wa rotavirus infection in vitro,human Wa rotavirus,could not prevent
B2,prevention of human Wa rotavirus infection in vitro,human Wa rotavirus,could not prevent
B3,Percentage of HT29 cells uninfected by rotavirus,[1]; 0.3125 mg/ml,60 +/− 8 ** %
same,Percentage of HT29 cells uninfected by rotavirus,[1]; 0.625 mg/ml,65 +/− 8 *** %
same,Percentage of HT29 cells uninfected by rotavirus,[1]; 1.25 mg/ml,73 +/− 12 *** %
same,Percentage of HT29 cells uninfected by rotavirus,[1]; 2.5 mg/ml,87 +/− 4 *** %
same,Percentage of HT29 cells uninfected by rotavirus,[1]; 5 mg/ml,67 +/− 4 *** %
B4,prevention of human Wa rotavirus infection in vitro,human Wa rotavirus,could not prevent
